According to patent US20260285993 (published 2026):
Where a chain is given by its changes, count along the chain named. Each block holds one binder with its values, some of them ahead of it.

Molecular target: T1, cynomolgus PRLR ECD (cynomolgus monkey)
T1 chain: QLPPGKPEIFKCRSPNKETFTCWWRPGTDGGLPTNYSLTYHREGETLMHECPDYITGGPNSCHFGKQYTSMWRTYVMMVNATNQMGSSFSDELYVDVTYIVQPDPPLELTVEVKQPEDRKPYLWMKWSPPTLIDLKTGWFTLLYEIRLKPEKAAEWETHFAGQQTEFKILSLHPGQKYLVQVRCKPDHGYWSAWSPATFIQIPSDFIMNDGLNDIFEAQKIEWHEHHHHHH
Experiment: ELISA

- binding result: no binding
B1: HP-PR01B01 (antibody, V domains shown)
VH: EVHLVESGPDLVKPSQSLSLTCTVTGYSITSGYNWHWIRQFPGNKLEWMGYIHYSGSTKYDPSLKSRISFTRDTSRNQFFLQLNSVTTEDRATYYCARSEAGGYSWFAYWGQGTLVTVSA
VL: DIVMTQSPAIMSASPGEKVTMACSASSSVNYMHWYQQKSGTSPKRWIYDTSKLASGVPARFSGSGSGTSYSLTISSMEAEDAATYYCQQWSSNPLTFGAGTKLELK

- binding result: no binding
B2: H-PR-B06 (antibody, V domains shown)
VH: DVKLVESGGGLVKPGGSLKLACAASGFTFSSYTMSWVRQTPEKRLEWVATISSGGSYTYYPDSVKGRFTISRDNAKNTLYLQLSSLKSEDTAMYYCTRDRYYSTTPDWYFDVWGAGTTVTVSS
VL: DIVLTQSPATLSVTPGDSVSLSCRATQIIFNNLHWYQQKSHESPRLLITYTSQSISGIPSRFSGSGSGTDFTLTINSVETEDFGMYFCQQSNTWPRTFGGGTKLEIK

- binding result: no binding
B3: HP-PR02H02 (antibody, V domains shown)
VH: B2 VH with D1E, K3M, V119L
VL: B2 VL with L4I
